The results in this text go back to article doi:10.1101/2025.04.28.648957 (bioRxiv, 2025).

Substitutions are numbered along the chain they refer to. Names and notes keep the numbering of the source.

The series “negative-staining TEM” concerns the molecule itself. The series can be described thus: negative-staining TEM.
The series “SEC-MALS” deals with the molecule itself. As to the kind of experiment: SEC-MALS. (SEC sorts molecules by how far they enter the pores of the column.)
The series “SEC” concerns the molecule itself. As to the kind of experiment: SEC.

B1: tag-cleaved SSNA1 S89A (natural protein, human)
chain: GPMTQQGAALQNYNNELVKCIEELCQKREELCRQIQEEEDEKQRLQNEVRQLTEKLARVNENLARKIASRNEFDRTIAETEAAYLKILESAQTLLSVLKREAGNLTKATAPDQKSSGGRDS
Consider B1, for which, in “negative-staining TEM”, the binding result is “binds”.

B2: tag-cleaved SSNA1 S89D (natural protein, human)
chain: B1 chain with A91D
Take B2: the stoichiometry N (commonly the number of molecules, sites or subunits per partner or assembly) in the series “SEC-MALS” was determined as 2.

B3: tag-cleaved SSNA1 (full-length human SSNA1, 1-119) (natural protein)
chain: B1 chain with A91S
Take B3: in “SEC”, the binding result is “binds”.

B4: tag-cleaved SSNA1 1-97 (domain or fragment, human)
chain: GPMTQQGAALQNYNNELVKCIEELCQKREELCRQIQEEEDEKQRLQNEVRQLTEKLARVNENLARKIASRNEFDRTIAETEAAYLKILESSQTLLSVLK
On to B4, for which the binding result in the series “negative-staining TEM” is given as “binds”.

B5: tag-cleaved SSNA1 1-90 (domain or fragment, human)
chain: GPMTQQGAALQNYNNELVKCIEELCQKREELCRQIQEEEDEKQRLQNEVRQLTEKLARVNENLARKIASRNEFDRTIAETEAAYLKILESSQ
As for B5, in the series “SEC-MALS”, the “stoichiometry N” value worked out at 2.

B6: tag-cleaved SSNA1 1-104 (domain or fragment, human)
chain: GPMTQQGAALQNYNNELVKCIEELCQKREELCRQIQEEEDEKQRLQNEVRQLTEKLARVNENLARKIASRNEFDRTIAETEAAYLKILESSQTLLSVLKREAGNLT
As to B6, the binding result in “SEC” is recorded as “binds”.
